Experimental data from paper PMC5383425, “Differential CLE peptide perception by plant receptors implicated from structural and functional analyses of TDIF-TDR interactions” (PLoS ONE, 2017).
Substitutions are numbered along the chain they refer to. Square brackets hold non-standard residues; d marks the D form. Ends that are not written are not given here. Hyp = O=C(O)[C@@H]1C[C@@H](O)CN1

What was measured:
[1] = biological target: T1, extracellular domain of A. thaliana TDR (residues 30-642) (Arabidopsis thaliana, UniProt Q9FII5 30-642, N-glycosylated at N111, N356, N378, N471 and N525 (one GlcNAc visible on each in the structures)); experiment: ITC
T1 chain: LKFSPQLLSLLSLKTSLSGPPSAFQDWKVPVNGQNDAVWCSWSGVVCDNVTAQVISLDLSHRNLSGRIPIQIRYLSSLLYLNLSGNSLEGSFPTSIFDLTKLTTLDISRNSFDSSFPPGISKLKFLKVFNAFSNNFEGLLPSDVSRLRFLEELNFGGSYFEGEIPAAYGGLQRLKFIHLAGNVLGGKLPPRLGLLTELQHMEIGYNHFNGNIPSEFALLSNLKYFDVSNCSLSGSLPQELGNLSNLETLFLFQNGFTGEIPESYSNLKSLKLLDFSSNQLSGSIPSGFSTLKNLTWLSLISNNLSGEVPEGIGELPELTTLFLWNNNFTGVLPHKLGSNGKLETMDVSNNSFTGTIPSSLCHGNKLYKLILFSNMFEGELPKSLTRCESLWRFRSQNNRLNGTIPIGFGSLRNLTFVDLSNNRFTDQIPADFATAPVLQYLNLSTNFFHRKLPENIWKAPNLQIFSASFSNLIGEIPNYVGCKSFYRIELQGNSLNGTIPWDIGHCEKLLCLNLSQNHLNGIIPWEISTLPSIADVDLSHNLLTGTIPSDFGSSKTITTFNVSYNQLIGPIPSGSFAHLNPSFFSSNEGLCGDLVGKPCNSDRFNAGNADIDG

[2] = biological target: T2, extracellular domain of A. thaliana TDR (residues 30-642) (Arabidopsis thaliana, UniProt Q9FII5 30-642, N-glycosylated at N111, N356, N378, N471 and N525 (one GlcNAc visible on each in the structures)); experiment: crystal structure; ecdTDR 5 mg/ml (42 μM) mixed with 420 μM TDIF, 4°C for 1 hour; crystals at 18°C in 200 mM MgSO4, 20% PEG 3350; 2.75 Å; conditions: both partners purified
T2 construct: TDR/PXY (TDIF RECEPTOR / PHLOEM INTERCALATED WITH XYLEM) of A. thaliana, extracellular domain, residues 30-642; the structure models hold residues 40-625; also called ecdTDR; TDR-ECD; source: High Five insect cells (baculovirus), secreted, purified (Ni-NTA, size-exclusion chromatography)
T2 sequence (looked up): T1 chain

[3] = biological target: T3, ecdTDR F279/F281 double alanine mutant (Arabidopsis thaliana, UniProt Q9FII5 30-642, F279 to alanine | F281 to alanine); experiment: ITC; 0.5–1 mM peptide titrated into 10–40 μM ecdTDR; 25°C; 10 mM sodium citrate, 100 mM NaCl, pH 5.5; fitted to one set of binding sites; MicroCal Auto-iTC200; conditions: both partners purified
T3 construct: TDR/PXY of A. thaliana, extracellular domain, residues 30-642; also called F279A/F281A; source: High Five insect cells (baculovirus), secreted, purified as the wild type (Ni-NTA, size-exclusion chromatography)
T3 sequence (looked up): T1 chain with F250A, F252A

[4] = biological target: T4, TDR-R421A/R423A double mutant (ecdTDR) (Arabidopsis thaliana, UniProt Q9FII5 30-642, R421A | R423A); experiment: ITC
T4 sequence: T1 chain with R392A, R394A

[5] = biological target: T5, ecdTDR F279/F281 double alanine mutant (Arabidopsis thaliana, UniProt Q9FII5 30-642, F279 to alanine | F281 to alanine); experiment: ITC
T5 sequence: T1 chain with F250A, F252A

B1: Tracheary Element Differentiation Inhibitory Factor (TDIF) peptide (peptide)
peptide: HEV[Hyp]SG[Hyp]NPISN
notes: TDIF, the 12-residue CLE peptide processed from CLE41 and CLE44 of A. thaliana; printed as HEV(Hyp)SG(Hyp)NPISN; numbers count on: the 12-residue peptide; CLE44 encodes the same peptide; also called wild type TDIF; wtTDIF; source: synthetic peptide (peptide 2.0)
Kd [1]: 103 nM
binding result [2]: binds
fold decrease in binding against wild-type ecdTDR [3]: 8.6 fold
Kd [4]: 306 nM
Kd [5]: 887 nM
